We go through eight molecules from US11471462B2, “Compositions and methods for detecting and treating diabetes” (THE BROAD INSTITUTE, INC., priority 2016, dated 2022).

First the molecules themselves.
B1: LPCAT1 (protein)
chain: MRLRGCGPRAAPASSAGASDARLLAPPGRNPFVHELRLSALQKAQVALMTLTLFPVRLLVAAAMMLLAWPLALVASLGSAEKEPEQPPALWRKVVDFLLKAIMRTMWFAGGFHRVAVKGRQALPTEAAILTLAPHSSYFDAIPVTMTMSSIVMKAESRDIPIWGTLIQYIRPVFVSRSDQDSRRKTVEEIKRRAQSNGKWPQIMIFPEGTCTNRTCLITFKPGAFIPGAPVQPVVLRYPNKLDTITWTWQGPGALEILWLTLCQFHNQVEIEFLPVYSPSEEEKRNPALYASNVRRVMAEALGVSVTDYTFEDCQLALAEGQLRLPADTCLLEFARLVRGLGLKPEKLEKDLDRYSERARMKGGEKIGIAEFAASLEVPVSDLLEDMFSLFDESGSGEVDLRECVVALSVVCRPARTLDTIQLAFKMYGAQEDGSVGEGDLSCILKTALGVAELTVTDLFRAIDQEEKGKITFADFHRFAEMYPAFAEEYLYPDQTHFESCAETSPAPIPNGFCADFSPENSDAGRKPVRKKLD
B2: FAF2 (protein)
chain: AAPEERDLTQEQTEKLLQFQDLTGIESMDQCRHTLEQHNWNIEAAVQDRLNEQEGVPSVFNPPPSRPLQVNTADHRIYSYVVSRPQPRGLLGWGYYLIMLPFRFTYYTILDIFRFALRFIRPDPRSRVTDPVGDIVSFMHSFEEKYGRAHPVFYQGTYSQALNDAKRELRFLLVYLHGDDHQDSDEFCRNTLCAPEVISLINTRMLFWACSTNKPEGYRVSQALRENTYPFLAMIMLKDRRMTVVGRLEGLIQPDDLINQLTFIMDANQTYLVSERLEREERNQTQVLRQQQDEAYLASLRADQEKERKKREERERKRRKEEEVQQQKLAEERRRQNLQEEKERKLECLPPEPSPDDPESVKIIFKLPNDSRVERRFHFSQSLTVIHDFLFSLKESPEKFQIEANFPRRVLPCIPSEEWPNPPTLQEAGLSHTEVLFVQDLTDE
B3: PPP6R3 (protein)
chain: MFWKFDLHSSSHIDTLLEREDVTLKELMDEEDVLQECKAQNRKLIEFLLKAECLEDLVSFIIEEPPQDMDEKIRYKYPNISCELLTSDVSQMNDRLGEDESLLMKLYSFLLNDSPLNPLLASFFSKVLSILISRKPEQIVDFLKKKHDFVDLIIKHIGTSAIMDLLLRLLTCIEPPQPRQDVLNWLNEEKIIQRLVEIVHPSQEEDRHSNASQSLCEIVRLSRDQMLQIQNSTEPDPLLATLEKQEIIEQLLSNIFHKEKNESAIVSAIQILLTLLETRRPTFEGHIEICPPGMSHSACSVNKSVLEAIRGRLGSFHELLLEPPKKSVMKTTWGVLDPPVGNTRLNVIRLISSLLQTNTSSINGDLMELNSIGVILNMFFKYTWNNFLHTQVEICIALILASPFENTENATITDQDSTGDNLLLKHLFQKCQLIERILEAWEMNEKKQAEGGRRHGYMGHLTRIANCIVHSTDKGPNSALVQQLIKDLPDEVRERWETFCTSSLGETNKRNTVDLVTTCHIHSSSDDEIDFKETGFSQDSSLQQAFSDYQMQQMTSNFIDQFGFNDEKFADQDDIGNVSFDRVSDINFTLNTNESGNIALFEACCKERIQQFDDGGSDEEDIWEEKHIAFTPESQRRSSSGSTDSEESTDSEEEDGAKQDLFEPSSANTEDKMEVDLSEPPNWSANFDVPMETTHGAPLDSVGSDVWSTEEPMPTKETGWASFSEFTSSLSTKDSLRSNSPVEMETSTEPMDPLTPSAAALAVQPEAAGSVAMEASSDGEEDAESTDKVTETVMNGGMKETLSLTVDAKTETAVFKRVLKSYREEGKLSTSQDAACKDAEECPETAEAKCAAPRPPSSSPEQRTGQPSAPGDTSVNGPV
B4: TIMM23B (protein)
chain: MEGGGGSGDKTTGVLAGFFGAGEAGYSHADLAGVPLTGMNPLCPYLNVDPRYLVQDTDEFILPTGANKTWGRFELAFFTIGGCCMTGAAFGAMNGLRLGLKETQNMAWSKPGNVQILNMVTRQGALWANTLGSLALLYSAFGVIIEKTRGAEDDLNTVAAGTMTGMLYKCTVSEMALDSPFCVLLSGS
B5: SLC25A22 (protein)
chain: MADKQISLPAKLINGGIAGLIGVTCVFPIDLAKTRLQNQQNGQRVYTSMSDCLIKTVRSEGYFGMYRGAAVNLTLVTPEKAIKLAANDFFRHQLSKDGQKLTLLKEMLAGCGAGTCQVIVTTPMEMLKIQLQDAGRIAAQRKILAAQGQLSAQGGAQPSVEAPAAPRPTATQLTRDLLRSRGIAGLYKGLGATLLRDVPFSVVYFPLFANLNQLGRPASEEKSPFYVSFLAGCVAGSAAAVAVNPCDVVKTRLQSLQRGVNEDTYSGILDCARKILRHEGPSAFLKGAYCRALVIAPLFGIAQVVYFLGIAESLLGLLQDPQA
B6: AGPAT6 (protein)
chain: VSFGIRKLYMKSLLKIFAWATLRMERGAKEKNHQLYKPYTNGIIAKDPTSLEEEIKEIRRSGSSKALDNTPEFELSDIFYFCRKGMETIMDDEVTKRFSAEELESWNLLSRTNYNFQYISLRLTVLWGLGVLIRYCFLLPLRIALAFTGISLLVVGTTVVGYLPNGRFKEFMSKHVHLMCYRICVRALTAIITYHDRENRPRNGGICVANHTSPIDVIILASDGYYAMVGQVHGGLMGVIQRAMVKACPHVWFERSEVKDRHLVAKRLTEHVQDKSKLPILIFPEGTCINNTSVMMFKKGSFEIGATVYPVAIKYDPQFGDAFWNSSKYGMVTYLLRMMTSWAIVCSVWYLPPMTREADEDAVQFANRVKSAIARQGGLVDLLWDGGLKREKVKDTFKEEQQKLYSKMIVGNHKDRSRS
B7: UBAC2 (protein)
chain: HCQKLFVYDLHAVKNDFQIWRLICGRIICLDLKDTFCSSLLIYNFRIFERRYGSRKFASFLLGSWVLSALFDFLLIEAMQYFFGITAASNLPSGFLAPVFALFVPFYCSIPRVQVAQILGPLSITNKTLIYILGLQLFTSGSYIWIVAISGLMSGLCYDSKMFQVHQVLCIPSWMAKFFSWTLEPIFSSSEPTSEARIGMGATLDIQRQQRMELLDRQLMFSQFAQGRRQRQQQGGMINWNRLFPPLRQRQNVNYQGGRQSEPAAPPLEVSEEQVARLMEMGFSRGDALEALRASNNDLNVATNFLLQH
B8: PSMD12 (protein)
chain: ADGGSERADGRIVKMEVDYSATVDQRLPECAKLAKEGRLQEVIETLLSLEKQTRTASDMVSTSRILVAVVKMCYEAKEWDLLNENIMLLSKRRSQLKQAVAKMVQQCCTYVEEITDLPIKLRLIDTLRMVTEGKIYVEIERARLTKTLATIKEQNGDVKEAASILQELQVETYGSMEKKERVEFILEQMRLCLAVKDYIRTQIISKKINTKFFQEENTEKLKLKYYNLMIQLDQHEGSYLSICKHYRAIYDTPCIQAESEKWQQALKSVVLYVILAPFDNEQSDLVHRISGDKKLEEIPKYKDLLKLFTTMELMRWSTLVEDYGMELRKGSLESPATDVFGSTEEGEKRWKDLKNRVVEHNIRIMAKYYTRITMKRMAQLLDLSVDESEAFLSNLVVNKTIFAKVDRLAGIINFQRPKDPNNLLNDWSQKLNSLMSLVNKTTHLIAKEEMIHNLQ

The assay deals with SLC16A11. Put plainly: SLC16A11 protein-protein interaction study (immunoprecipitation, quantitative mass spectrometry). The arrangement: species or system human. The following applies: putative SLC16A11^REF interaction partners; immunoprecipitation from HEK293T cells vs empty vector control; Blandt-Altman. The source says:
Alternatively, these variants may result in reduced transport because they disrupt protein-protein interactions responsible for correct SLC16A11 function. To explore this possibility, SLC16A11 was immunoprecipitated from HEK293T cells expressing either REF or T2D risk SLC16A11-V5 or empty vector control and quantitative mass spectrometry was used to define the SLC16A11 interactome.
Another mechanism through which the variants could affect activity is through disruption of protein-protein interactions. To explore this possibility, quantitative mass spectrometry-based protein-protein interaction studies were performed to define the SLC16A11 interactome and evaluate if the T2D risk coding variants alter any interactions.
Beads were then washed once with lysis buffer and three times with wash buffer. After the last wash, residual wash buffer was removed, 10 μL fresh wash buffer was added, and beads were stored at −80° C. until analysis by the Proteomics Platform at the Broad Institute, as detailed in the “Proteomics Methods for SLC16A11 Protein Interaction Studies” below.
The beads from immunopurification were washed once with IP lysis buffer, then three times with PBS, the three different lysates of each replicate were resuspended in 90 uL digestion buffer (2M Urea, 50 mM Tris HCl), 2 ug of sequencing grade trypsin added, 1 hour shaking at 700 rpm. The supernatant was removed and placed in a fresh tube. The beads were then washed twice with 50 uL digestion buffer and combined with the supernatant. The combined supernatants were reduced (2 uL 500 mM DTT, 30 minutes, RT), alkylated (4 uL 500 mM IAA, 45 minutes, dark) and a longer overnight digestion performed: 2 ug (4 uL) trypsin, shake o/n, The samples were then quenched with 20 uL 10% FA and desalted on 10 mg SepPak columns.
Desalted peptides were labelled with iTRAQ reagents according to the manufacturer's instructions (AB Sciex, Foster City, Calif.). Peptides were dissolved in 30 μl of 0.5 M TEAB pH 8.5 solution and labeling reagent was added in 70 ul of ethanol. After 1 h incubation the reaction was stopped with 50 mM Tris/HCl pH 7.5. Differentially labelled peptides were mixed and subsequently desalted on 10 mg SepPak columns.
Reconstituted peptides were separated on an online nanoflow EASY-nLC 1000 UHPLC system (Thermo Fisher Scientific) and analyzed on a benchtop Orbitrap Q Exactive Plus mass spectrometer (Thermo Fisher Scientific). The peptide samples were injected onto a capillary column (Picofrit with 10 μm tip opening/75 μm diameter, New Objective, PF360-75-10-N-5) packed in-house with 20 cm C18 silica material (1.9 μm ReproSil-Pur C18-AQ medium, Dr. Maisch GmbH, r119.aq). The UHPLC setup was connected with a custom-fit microadapting tee (360 μm, IDEX Health & Science, UH-753), and capillary columns were heated to 50° C. in column heater sleeves (Phoenix-ST) to reduce backpressure during UHPLC separation. Injected peptides were separated at a flow rate of 200 nL/min with a linear 80 min gradient from 100% solvent A (3% acetonitrile, 0.1% formic acid) to 30% solvent B (90% acetonitrile, 0.1% formic acid), followed by a linear 6 min gradient from 30% solvent B to 90% solvent B. Each sample was run for 120 min, including sample loading and column equilibration times. The Q Exactive instrument was operated in the data-dependent mode acquiring HCD MS/MS scans (R=17,500) after each MS1 scan (R=70,000) on the 12 top most abundant ions using an MS1 ion target of 3×10^6 ions and an MS2 target of 5×10^4 ions. The maximum ion time utilized for the MS/MS scans was 120 ms; the HCD-normalized collision energy was set to 27; the dynamic exclusion time was set to 20 s, and the peptide match and isotope exclusion functions were enabled.
All mass spectra were processed using the Spectrum Mill software package v6.0 pre-release (Agilent Technologies) which includes modules developed by us for iTRAQ-based quantification. […]
Turning to B1, the “BA log fold change” value was 1.16.

On to B2, for which the “BA log fold change” value amounted to 1.23.

As for B3, the “BA log fold change” value is reported as 1.18.

Take B4: the “BA log fold change” value is reported as 1.22.

Regarding B5, the “BA log fold change” value is recorded as 1.20.

As to B6, the “BA log fold change” value was 1.16.

As for B7, the “BA log fold change” value is 1.21.

As for B8, the “BA log fold change” value came out at 1.18.
